For this assay, the target named is HLA-A2 on HLA-A2 positive lymphocytes / PBMCs (human). The experiment in a line: cell-based or functional assay.

“conjugate C (streptavidin-linked BB7.2 monoclonal antibody mixed with biotinylated HLA-G) (from UniProt P22629 37-163; P17693 25-299)” gave a G-Body inhibitory effect on proliferation of PBMCs; CD3/CD28 beads; HLA-A2 positive donor C; Day 7 of 70%, a G-Body inhibitory effect on proliferation of PBMCs; CD3/CD28 beads; HLA-A2 positive donor D; Day 7 of 50%, a G-Body inhibitory effect on proliferation of PBMCs; CD3/CD28 beads; HLA-A2 positive donor G; Day 3 of 40% and a G-Body inhibitory effect on proliferation of PBMCs; CD3/CD28 beads; HLA-A2 positive donor G; Day 7 of 50%. Also, the G-Body inhibitory effect on proliferation of PBMCs; CD3/CD28 beads; HLA-A2 positive donor J; Day 3 was found to be 50%, the G-Body inhibitory effect on proliferation of PBMCs; SEB; HLA-A2 positive donor C; Day 3 turned out to be 60%, the G-Body inhibitory effect on proliferation of PBMCs; SEB; HLA-A2 positive donor J; Day 3 came out at 70% and the G-Body inhibitory effect on proliferation of PBMCs; SEB; HLA-A2 positive donor J; Day 7 was determined as 70%.
